Results: the Human Domainome abundance scans (Beltran et al. 2025)

B1: POU domain, class 2, transcription factor 1, residues 285 to 354; numbered along this chain, P14859 (parent)
chain: LEELEQFAKTFKQRRIKLGFTQGDVGLAMGKLYGNDFSQTTISRFEALNLSFKNMCKLKPLLEKWLNDAE

Variants of: B1
Experiment: abundance fitness (aPCA) (normalised: wild type 0, dead -1); higher = more abundant; growth selection in yeast, the domain comes from the species named
Conditions: Homo sapiens

Abundance fitness: each site, then its substitutions
E63: L 0.024 | M -0.031 | Q -0.07 | N -0.199 | K -0.126 | G -0.023 | R -0.199 | T -0.1 | A 0.07 | D -0.45 | S -0.082 | I -0.22 | P -0.571 | W -0.075 | V -0.095
K59: N -0.311 | D -0.672 | C -0.134 | A -0.028 | T -0.033 | P -0.72 | L -0.06 | W -0.026 | H -0.014 | G -0.175 | Y -0.072 | M -0.002 | Q -0.037 | F -0.138 | I -0.13 | R -0.005 | S -0.092 | V -0.056
N54: V 0.006 | M -0.005 | T -0.008 | D 0.08 | P -0.135 | Y -0.01 | H 0.004 | C 0.011 | A 0.019 | S 0.009 | K 0.009 | I 0.054 | G -0.018 | L -0.005
L61: G -0.09 | I -0.097 | F -0.005 | V -0.008 | K -0.031 | T -0.026 | D -0.075 | P -0.006 | Q -0.053 | S -0.078 | M -0.053 | W -0.038 | R 0.008 | N -0.017 | H 0.016 | C -0.188
K53: C 0.015 | E 0.039 | M 0.078 | A 0.049 | I 0.089 | G -0.017 | T -0.028 | D -0.029 | R 0.015 | Q -0.019 | Y -0.122 | F 0.041 | V -0.048 | N 0.063 | H -0.024 | L 0.008 | S -0.006 | P 0.007
L58: W 0.002 | D -0.474 | S -0.178 | Q -0.199 | K -0.202 | T -0.07 | E -0.526 | A -0.062 | F -0.026 | N -0.396 | I -0.027 | M 0.014 | P -0.802 | C -0.019 | G -0.632 | V 0.005 | Y -0.115 | H -0.046
C56: F 0.027 | L -0.016 | Q 0.063 | G -0.047 | V -0.01 | W -0.005 | S 0.032 | P -0.681 | A -0.004 | Y 0.042 | H -0.085 | K -0.201 | M 0.034 | T 0.023 | I -0.014
L62: S -0.567 | D -0.354 | A -0.149 | W -1.08 | K -0.937 | I -0.091 | M -0.006 | E -0.914 | Q -0.913 | F -0.017 | C -0.18 | P -0.699 | Y -0.069 | G -0.545 | V -0.102 | T -0.406
W65: C -0.35 | F 0.009 | G -0.555 | D -0.968 | A -0.432 | E -0.825 | H -0.5
M55: I -0.086 | D -0.381 | E -0.488 | S -0.1 | Q -0.034 | H -0.247 | W -0.271 | K -0.51 | V -0.167 | P -0.991 | L -0.013 | Y -0.153 | C -0.12 | R -0.48 | G -0.068 | F -0.107
N49: R -0.079 | F -0.279 | Y -0.063 | H -0.063 | K -0.045 | C -0.086 | V -0.052 | W -0.218 | S -0.004 | Q 0.007 | T 0.03 | L -0.029 | E 0.043 | D 0.033 | G -0.002 | I 0.025 | P -0.65
F45: S -0.864 | Y -0.133 | P -1.04 | T -0.847 | M -0.137 | K -0.97 | R -1.01 | W -0.247 | N -1.04 | C -0.451 | L -0.115 | Q -1.02 | E -1.01 | I -0.382 | A -0.62 | V -0.429 | H -0.952
R44: P -1.02 | W -0.253 | N -0.165 | Q 0.042 | S 0.015 | Y -0.155 | M -0.032 | T -0.089
L48: T -0.004 | N -0.03 | Y -0.053 | P -0.336 | W -0.142 | M -0.007 | K 0.084 | R 0.004 | Q 0.006 | C 0.001 | S -0.005 | A -0.054 | V -0.085 | I 0.014 | F -0.054
P60: K -0.072 | F -0.114 | H -0.094 | M -0.065 | N -0.094 | V -0.141 | D -0.042 | A -0.066 | C -0.051 | S -0.029 | I -0.059 | Y -0.217 | T -0.08 | L -0.074 | R -0.107 | Q -0.094
F52: S -0.017 | T 0.02 | P -0.324 | H 0.059 | N -0.039 | A 0.017 | M -0.026 | E -0.035 | Q -0.059 | R -0.001 | I 0.013 | W -0.002 | Y 0.001 | L -0.005 | C -0.037 | K -0.024 | D 0.007 | G -0.059 | V 0.009
K57: C 0.005 | R -0.047 | E -0.004 | G -0.082 | F -0.027 | I -0.058 | A -0.031 | H -0.069 | V -0.024 | W -0.042 | M -0.063 | P -0.451 | D 0.04 | Q -0.018 | L -0.005 | S -0.006 | Y 0.031
K64: D -0.037 | W -0.113 | T -0.04 | Y -0.225 | G -0.026 | A -0.036 | H -0.1 | R -0.019 | S 0.011 | E -0.02 | Q -0.011 | C -0.143 | P -0.387 | N -0.022
E46: W -0.698 | H -0.856 | L -1.01 | F -1 | K -0.658 | V -0.852 | T -0.934 | D -0.754 | G -0.929 | I -0.84 | Q -0.851 | Y -1.02 | N -0.783 | C -0.801
S51: N -0.099 | L -0.579 | R -0.056 | G 0.028 | C -0.086 | Q -0.09 | F -0.807 | A -0.055 | E 0.003 | M -0.472 | H -0.076 | P 0.002 | T -0.035 | Y -0.496 | W -0.982 | K -0.023 | I -0.801
L50: Y -0.03 | S -0.151 | T -0.073 | D -0.026 | M 0.038 | C 0.007 | R -0.738 | W -0.148 | N -0.385 | P -0.678 | V -0.1 | A -0.121 | I -0.135 | Q -0.207 | G -0.074 | E -0.041
A47: P -0.964 | R -0.044 | E 0.055 | S -0.048 | D 0.092 | Q 0.017 | G 0.001 | N 0.033 | H -0.107 | K -0.015 | L 0.054
